Settings in all cases: partners not purified
Assay [1] deals with Cerulean-CaVβ1 ( (human or rat cDNA cloned), UniProt Q02641-1). Description: FRET or BRET; flow cytometry FRET (flow-FRET) in live HEK293 cells co-transfected with Venus-nanobody and Cerulean-CaVβ; FRET efficiency against free nanobody fitted with a 1:1 binding model; effective dissociation constant (Kd,EFF); cycloheximide 100 μM 2 h before. (In general: In BRET a luciferase serves as donor, and the signal depends on an acceptor being close.)
Chain of Cerulean-CaVβ1 (Q02641 whole entry): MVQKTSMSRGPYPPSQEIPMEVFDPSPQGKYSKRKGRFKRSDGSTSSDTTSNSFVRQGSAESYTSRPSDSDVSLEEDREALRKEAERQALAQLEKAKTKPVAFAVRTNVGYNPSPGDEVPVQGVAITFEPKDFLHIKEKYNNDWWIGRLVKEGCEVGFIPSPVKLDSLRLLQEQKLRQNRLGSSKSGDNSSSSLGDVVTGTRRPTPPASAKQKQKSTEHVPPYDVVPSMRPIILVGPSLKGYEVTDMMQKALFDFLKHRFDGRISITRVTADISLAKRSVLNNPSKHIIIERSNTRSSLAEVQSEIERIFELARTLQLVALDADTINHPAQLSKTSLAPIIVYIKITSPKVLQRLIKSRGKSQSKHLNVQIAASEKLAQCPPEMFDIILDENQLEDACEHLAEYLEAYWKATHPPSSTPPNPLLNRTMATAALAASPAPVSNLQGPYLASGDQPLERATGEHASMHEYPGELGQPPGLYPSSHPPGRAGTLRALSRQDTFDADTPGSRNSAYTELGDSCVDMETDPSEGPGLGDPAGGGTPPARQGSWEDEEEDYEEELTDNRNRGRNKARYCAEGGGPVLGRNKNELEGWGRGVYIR

Assay [2] addresses Cerulean-CaVβ2 ( (human or rat cDNA cloned), UniProt Q08289). Described as above.
The target in assay [3] is Cerulean-CaVβ3 ( (human or rat cDNA cloned), UniProt P54284). The assay is described as above.
Chain of Cerulean-CaVβ3 (P54284 whole entry): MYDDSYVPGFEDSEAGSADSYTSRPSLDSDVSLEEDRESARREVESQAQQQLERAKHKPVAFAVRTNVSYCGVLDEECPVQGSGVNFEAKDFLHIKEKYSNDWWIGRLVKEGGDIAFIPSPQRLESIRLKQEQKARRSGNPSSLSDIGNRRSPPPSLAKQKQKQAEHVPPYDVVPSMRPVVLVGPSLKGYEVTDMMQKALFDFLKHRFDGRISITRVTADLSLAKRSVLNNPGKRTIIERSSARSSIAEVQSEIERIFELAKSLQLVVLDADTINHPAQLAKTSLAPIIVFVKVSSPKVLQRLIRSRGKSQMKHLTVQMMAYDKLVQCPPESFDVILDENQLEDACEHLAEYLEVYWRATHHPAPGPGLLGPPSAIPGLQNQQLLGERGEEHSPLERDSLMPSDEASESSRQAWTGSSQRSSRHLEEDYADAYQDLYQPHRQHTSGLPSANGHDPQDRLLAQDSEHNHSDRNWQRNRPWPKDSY
Assay [4] deals with Cerulean-CaVβ4 ( (human or rat cDNA cloned), UniProt O00305). The assay is described as above.
In assay [5] the target is T1, Venus-tagged β1b[NK-CT] (Rattus norvegicus (assumed), UniProt P54283).
T1 construct: CaVβ1b module of the NK domain and the C-terminus; the text says the module was tagged with Cerulean; source: HEK293, co-expressed, in cells
T1 sequence (P54283 whole entry, looked up, the tested form may be a part): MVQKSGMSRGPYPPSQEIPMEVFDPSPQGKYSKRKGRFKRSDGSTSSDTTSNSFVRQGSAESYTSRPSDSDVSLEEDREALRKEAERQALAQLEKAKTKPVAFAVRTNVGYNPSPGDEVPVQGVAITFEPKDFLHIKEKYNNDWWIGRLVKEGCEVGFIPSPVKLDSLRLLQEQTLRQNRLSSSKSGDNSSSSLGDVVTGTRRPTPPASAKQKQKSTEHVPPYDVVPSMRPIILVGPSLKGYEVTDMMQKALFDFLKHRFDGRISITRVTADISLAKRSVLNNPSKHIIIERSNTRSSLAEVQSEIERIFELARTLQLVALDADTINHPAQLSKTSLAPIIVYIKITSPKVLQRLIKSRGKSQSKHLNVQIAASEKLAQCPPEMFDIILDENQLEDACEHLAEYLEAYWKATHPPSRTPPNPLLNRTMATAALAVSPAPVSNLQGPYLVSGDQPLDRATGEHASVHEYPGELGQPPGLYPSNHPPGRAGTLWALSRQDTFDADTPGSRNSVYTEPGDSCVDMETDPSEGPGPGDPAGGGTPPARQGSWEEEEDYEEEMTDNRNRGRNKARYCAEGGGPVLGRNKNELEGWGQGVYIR
Description: FRET or BRET; flow cytometry FRET (flow-FRET) in HEK293 cells co-expressing Cerulean-nb.E8 and Venus-tagged β1b modules or β1b/β3 chimeras; 1:1 binding model; effective dissociation constant (Kd,EFF).

Chain of Cerulean-CaVβ2 (Q08289 whole entry): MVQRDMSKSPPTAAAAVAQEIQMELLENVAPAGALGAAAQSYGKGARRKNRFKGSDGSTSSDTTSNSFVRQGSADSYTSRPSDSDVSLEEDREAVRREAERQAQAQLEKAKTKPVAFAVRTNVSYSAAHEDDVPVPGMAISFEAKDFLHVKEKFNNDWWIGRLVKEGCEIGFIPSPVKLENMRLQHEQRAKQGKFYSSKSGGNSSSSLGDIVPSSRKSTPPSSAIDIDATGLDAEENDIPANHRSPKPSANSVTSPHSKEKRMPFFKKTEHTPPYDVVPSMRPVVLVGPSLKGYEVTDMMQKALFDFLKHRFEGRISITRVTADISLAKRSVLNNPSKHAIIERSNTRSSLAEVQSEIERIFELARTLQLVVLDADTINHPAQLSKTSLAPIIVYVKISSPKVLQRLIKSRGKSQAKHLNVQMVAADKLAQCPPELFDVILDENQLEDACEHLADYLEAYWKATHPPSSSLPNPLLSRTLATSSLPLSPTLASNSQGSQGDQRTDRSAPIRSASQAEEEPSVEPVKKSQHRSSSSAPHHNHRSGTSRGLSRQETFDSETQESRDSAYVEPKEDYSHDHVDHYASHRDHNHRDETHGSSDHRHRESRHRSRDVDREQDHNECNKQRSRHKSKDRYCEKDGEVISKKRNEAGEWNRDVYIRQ

B1: Venus-nb.F3 (VHH)
VHH: QVQLQESGGGLVQAGGSLRLSCVASGRTFSSYAMGWFRQAPGKEREFVAAIDWSGGTASHADSVKGRFTISRDNAKNTVYLQMNSLKPEDTAVYYCAASSYWSRSVDEYDYWGQGTQVTVSS
notes: llama nanobody nb.F3 from a phage display library; The methods say the nanobodies were cloned upstream of a Venus marker (pCDNA3.1), while the name Venus-nb.F3 puts the tag first; also called Venus-tagged nb.F3; source: HEK293, transiently co-transfected, in cells; not shown: Venus, C-terminal, kept
On to B1, for which the binding result in assay [1], in assay [2], in assay [3] and in assay [4] was “binds” in each case.

B2: Venus-nb.E8 (VHH)
VHH: QVQLQESGGGSVQAGGSLRLSCAASGRTFSKNAMGWFRQAPGKEREFVVAISWSGRNTYYADSVKGRFTISRDNAKNTVDLQMNSLKPEDSAVYYCAVGGDWRVYDISFYYTAHQYEYWGQGTQVTVSS
notes: llama nanobody nb.E8 from a phage display library; The methods say the nanobodies were cloned upstream of a Venus marker (pCDNA3.1), while the name Venus-nb.E8 puts the tag first; also called Venus-tagged nb.E8; source: HEK293, transiently co-transfected, in cells; not shown: Venus, C-terminal, kept
Turning to B2, the binding result in assay [1] is “binds”; in assay [2] it was “no binding”; in assay [3] it was “no binding”; in assay [4], “no binding”.

B3: Cerulean-nb.E8 (VHH)
VHH: B2 VHH
notes: the text of the results says that the CaVβ1 modules carried Cerulean; source: HEK293, co-expressed, in cells
As to B3, the binding result in assay [5] is “no binding”.

The values are drawn from PMC9734117, “Selective posttranslational inhibition of CaVβ1-associated voltage-dependent calcium channels with a functionalized nanobody” (Nature Communications, 2022).
